Measurements as given in paper PMC2891831, “Insight into the Mechanisms of Adenovirus Capsid Disassembly from Studies of Defensin Neutralization” (PLoS Pathogens, 2010).
“Also recorded” adds a separate entry of the source.

Tests used:
HAdV-5 [1] = settings: ref [13], cited from earlier work
Protocol: In order to determine the receptor-dependence of this effect, we pre-incubated cells with recombinant fiber knob from HAdV-5 (5FK) to block receptor (CAR) interactions and measured cell binding of fluorescently labeled HAdV-5 that was pre-incubated with or without HD5 or HD5-Abu (Figure 3C). Cells incubated with fiber knob from HAdV-16 (16FK), which binds CD46, served as a control. […] Therefore, we considered which of the multiple binding sites visualized by cryoEM might lead to enhanced virion stability. We reasoned that we might find a negatively charged region o ...

19cF [2] = test: Infection assay, 19cF virus chimera; type: cell-based, human adenovirus
From the text: The availability of sensitive (e.g., HAdV-5) and resistant (e.g., HAdV-19c) serotypes provided a means to test this HD5 neutralization model by generating virus chimeras. Initially, virus chimeras were constructed by replacing the sequences for fiber, penton base, and hexon in the HAdV-5 genome with the corresponding sequences from HAdV-19c. Consistent with previous studies, [38], the virus chimera containing the HAdV-19c hexon is not viable; however, constructs containing the HAdV-19c fiber (19cF) or penton base (19cPB) are capable of replicating. […] In contrast, the 19cPB virus has an intermediate phenotype.
Figure 6 Neutralization determinants are located in fiber and penton base. A) Schematic of chimeric viruses. […] B) Each of the chimeric viruses was incubated with 5 µM (grey) or 10 µM (black) HD5 and assessed for infectivity on A549 cells. […] The upper limit for quantification of this assay is 200%.
Prior to use in this assay, each virus stock was titrated on A549 cells. […] In parallel, wells were infected with two-fold serial dilutions of each virus to establish a standard curve for quantification with an upper limit of 200%. […] Total well fluorescence above background was quantified with ImageJ software. For each virus, samples were quantified by nonlinear regression against the standard curve using Prism software (GraphPad Software, Inc., La Jolla, CA).

HAdV-5 [3] = settings: ref [13], cited from earlier work; remark: listed apart in the source
HAdV-25p = test: Virus-defensin binding assay, HAdV-25p; parameters: species or system human adenovirus
From the text: Figure 2 HD5 binding to HAdV. A) HD5 binding to a representative defensin-sensitive serotype (HAdV-5) was quantified by an equilibrium-binding assay. Data are the mean of the number of HD5 molecules bound per virion at the indicated HD5 concentrations from at least three independent experiments ± SD. Binding curves were fitted using Prism software. B) Binding of HD5 to additional defensin-sensitive (HAdV-7p) and resistant (HAdV-19c, -25p, -51p) serotypes expressed as a percent of HD5 bound to HAdV-5. Data are the mean of two or three independent experiments ± SD.
We assessed HD5 binding to additional serotypes after incubation with 20 µM HD5 (Figure 2B). The sensitive serotype HAdV-7p bound 69.3±15.9% of the amount of HD5 bound to HAdV-5 in parallel samples; whereas, the corresponding values for the resistant serotypes HAdV-19c, -25p, and -51p were 32.5±7.5%, 3.3±5.8%, and 24.6±12.0%, respectively.
To measure HD5 binding to HAdV-5 and -51, HD5 was serially diluted in PBS and mixed with 5 µg purified virus. […] The other half of each sample was used to make a standard curve for quantification. […] Virus bands were quantified using ImageQuant NT software (GE Healthcare). […] The amount of HD5 in the centrifuged samples was then quantified against the standard curve using Prism software. […]

19cF [4] = test: Virus-defensin binding assay, 19cF; parameters: species or system human adenovirus; settings: studies equivalent to Figure 2B, data not shown
Protocol: We then combined the GYAR substitution with the PB substitution in a single construct (PB/GYAR).
To measure HD5 binding to HAdV-5 and -51, HD5 was serially diluted in PBS and mixed with 5 µg purified virus. After 1 h incubation on ice, one half of each sample was separated by ultracentrifugation [209,000×g (avg.) for 2 hrs at 4°C] on a discontinuous gradient consisting of 300 µl of 30% nycodenz and 200 µl of 80% nycodenz in 50 mM NaCl, 20 mM HEPES pH 7.4 using an SW55ti rotor with adaptors (Beckman Coulter, Inc.). The visible virus band was collected. The other half of each sample was used to make a standard curve for quantification. All samples were boiled in reducing loading buffer and separated using a 16% PAGEgel (Expedeon, Inc., San Diego, CA) or 10–20% Tris-Tricine gel (Bio-Rad, Hercules, CA). The gels were stained with Deep Purple (GE Healthcare) and imaged on a Typhoon Trio. Virus bands were quantified using ImageQuant NT software (GE Healthcare). The amount of HD5 in each sample was normalized to protein V and hexon. The amount of HD5 in the centrifuged samples was then quantified against the standard curve using Prism software. Affinity and stoichiometry were estimated from the average data of at least three independent experiments using Prism software.

B1: HD5: human alpha-defensin; synthetic, obtained from Peptides International; three disulfide bonds (PDB 1ZMP) (peptide, UniProt Q01523 20-94, looked up)
Defensin alpha 5: ESLQERADEATTQKQSGEDNQDLAISFAGNGLSALRTSGSQARATCYCRTGRCATRESLSGVCEISGRLYRLCCR
modifications: Defensin-5
For B1, the “effect on HAdV-5 entry into host cells” value (HAdV-5 [1]; [36]) is listed as “does not prevent HAdV-5 from entering host cells”, the “binding of HAdV-5 to cells” value (HAdV-5 [1]) is listed as “enhances binding of HAdV-5 to cells” and the “sensitivity to HD5 neutralization” value (19cF [2]; 5 µM and 10 µM HD5, A549 cells, at least three independent experiments, upper limit 200%) is listed as “completely resistant to neutralization”. The “defensin-resistance at higher HD5 concentration” value (19cF [2]; 20 µM HD5, data not shown) was “confirmed the defensin-resistance”, the “inhibition of HAdV-5 infection” value (HAdV-5 [3]; low micromolar concentrations) was “significantly inhibit HAdV-5 infection at low micromolar concentrations” and the “productive infection by HAdV-5” value (HAdV-5 [3]) was “almost complete block to productive infection”. The IC50 (HAdV-5 [3]; read-out: IC50 for HAdV-5 infection) was 3 to 4 µM, the “HD5 bound, percent of HD5 bound to HAdV-5” value (HAdV-25p; 20 µM HD5, mean of two or three independent experiments ± SD) was 3.3±5.8% and the “level of HD5 binding (in words)” value (HAdV-25p; HAdV-25p) was “only a low level of binding”. For the same molecule, the “amount of HD5 bound compared to HAdV-5” value (19cF [4]) was “did not detect a reduction in the amount of HD5 bound; also recorded: did not result in a noticeable reduction in overall HD5 binding”.
